Assays:
[1] = molecular target: maddinglicin leader peptide construct madL2, Leader 2 (−23 − +5) (Clostridium sp. maddingley); test: ITC; MadC (200–600 μM) in the syringe, 20 injections of 2 μl into the cell with the leader variant (20–60 μM); 25°C; 50 mM HEPES, 500 mM NaCl, pH 7.5; at least triplicate
[2] = molecular target: maddinglicin leader peptide construct madL3, Leader 3 (−23 − +10) (Clostridium sp. maddingley); test: as above
[3] = molecular target: maddinglicin leader peptide construct madL1, Leader 1 (−23 – −1) (Clostridium sp. maddingley); test: as above
[4] = molecular target: prenisin (unmodified) (Lactococcus lactis) (UniProt P13068); settings: cited from earlier work
Sequence of prenisin (unmodified) (Lactococcus lactis) (P13068 24-57): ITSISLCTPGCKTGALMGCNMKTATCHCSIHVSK

[5] = molecular target: prenisin (modified) (Lactococcus lactis) (UniProt P13068); settings: cited from earlier work
Sequence of prenisin (modified) (Lactococcus lactis) (P13068 24-57): as above

[6] = molecular target: prenisin (dehydrated) (Lactococcus lactis) (UniProt P13068); settings: cited from earlier work
Sequence of prenisin (dehydrated) (Lactococcus lactis) (P13068 24-57): as above

[7] = molecular target: NisA leader peptide leader peptide (Lactococcus lactis) (UniProt P13068); test: ITC; settings: cited from earlier work
Sequence of NisA leader peptide leader peptide (Lactococcus lactis) (P13068 1-23): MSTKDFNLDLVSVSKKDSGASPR

[8] = molecular target: nisin precursor NisA (unmodified) (Lactococcus lactis) (UniProt P13068); test: ITC; settings: cited from earlier work
Sequence of nisin precursor NisA (unmodified) (Lactococcus lactis) (P13068 24-57): as the sequence (P13068 24-57) above

[9] = molecular target: NisA precursor peptide (unmodified) (Lactococcus lactis) (UniProt P13068); test: ITC; settings: cited from earlier work
Sequence of NisA precursor peptide (unmodified) (Lactococcus lactis) (P13068 24-57): as above

[10] = molecular target: MadC ∆34 ∆391 (double mutant carrying both deletions, each with an inserted GAG-linker) (Clostridium sp. maddingley); test: SPR

Sequence of NisB (P20103 whole entry): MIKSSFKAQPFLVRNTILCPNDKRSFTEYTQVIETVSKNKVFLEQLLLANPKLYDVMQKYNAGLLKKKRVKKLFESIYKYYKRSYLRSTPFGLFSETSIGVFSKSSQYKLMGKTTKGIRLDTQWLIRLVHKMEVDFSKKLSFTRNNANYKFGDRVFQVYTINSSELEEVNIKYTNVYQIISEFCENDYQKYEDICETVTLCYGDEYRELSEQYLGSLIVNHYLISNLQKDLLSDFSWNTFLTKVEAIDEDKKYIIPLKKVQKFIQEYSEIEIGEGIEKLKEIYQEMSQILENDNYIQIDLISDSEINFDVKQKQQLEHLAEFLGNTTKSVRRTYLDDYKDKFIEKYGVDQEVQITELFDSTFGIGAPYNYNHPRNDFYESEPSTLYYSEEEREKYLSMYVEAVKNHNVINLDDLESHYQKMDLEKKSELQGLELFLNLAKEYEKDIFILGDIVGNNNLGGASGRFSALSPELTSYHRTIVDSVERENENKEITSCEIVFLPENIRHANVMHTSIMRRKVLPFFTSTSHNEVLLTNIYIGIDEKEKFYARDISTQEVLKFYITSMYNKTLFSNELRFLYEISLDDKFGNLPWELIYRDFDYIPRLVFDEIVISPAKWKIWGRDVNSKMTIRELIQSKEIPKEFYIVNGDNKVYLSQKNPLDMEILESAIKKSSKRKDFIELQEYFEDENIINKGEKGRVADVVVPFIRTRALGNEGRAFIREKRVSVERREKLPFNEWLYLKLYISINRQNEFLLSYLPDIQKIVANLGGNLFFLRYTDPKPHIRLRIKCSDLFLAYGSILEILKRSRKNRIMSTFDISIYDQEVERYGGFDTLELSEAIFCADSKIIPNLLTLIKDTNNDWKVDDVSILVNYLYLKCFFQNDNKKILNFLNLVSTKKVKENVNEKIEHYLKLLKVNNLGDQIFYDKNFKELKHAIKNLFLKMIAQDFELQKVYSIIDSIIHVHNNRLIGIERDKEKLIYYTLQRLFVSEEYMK
Sequence of NisC (Q03202 whole entry): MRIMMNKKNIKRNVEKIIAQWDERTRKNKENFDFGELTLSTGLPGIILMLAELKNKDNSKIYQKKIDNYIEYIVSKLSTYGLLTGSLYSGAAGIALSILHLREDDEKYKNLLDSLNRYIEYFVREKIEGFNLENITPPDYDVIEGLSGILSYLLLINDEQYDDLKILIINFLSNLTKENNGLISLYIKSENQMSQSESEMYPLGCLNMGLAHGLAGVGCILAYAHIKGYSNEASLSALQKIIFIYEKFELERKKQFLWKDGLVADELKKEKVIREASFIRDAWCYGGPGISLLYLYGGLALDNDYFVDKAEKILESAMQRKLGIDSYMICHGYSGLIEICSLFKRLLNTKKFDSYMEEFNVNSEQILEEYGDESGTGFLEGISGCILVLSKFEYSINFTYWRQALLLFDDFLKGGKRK

MadC (lanthionine cyclase of Clostridium sp. maddingley), His6-tag cleaved off (enzyme)
dH [1]: -6.02 kcal/mol
stoichiometry N [1]: 0.99
dH [2]: -7.3 kcal/mol
stoichiometry N [2]: 0.99
dH [3]: -8.76 kcal/mol
stoichiometry N [3]: 0.83

NisB (from UniProt P20103)
Kd [4]: 1000 nM
Kd [5]: 10500 nM
Kd [6]: 300 nM

NisC (from UniProt Q03202)
Kd [7]: 3800 nM
Kd [8]: 2000 nM
Kd [9]: 2400 nM

maddinglicin leader peptide construct madL3, Leader 3 (−23 − +10)
Kd [10]: 35000 nM

From PMC9889658, “The structure of MadC from Clostridium maddingley reveals new insights into class I lanthipeptide cyclases” (Frontiers in Microbiology, 2023)
